In publication PMC11322666:

Biological target: UPF3B (UniProt Q9BZI7)
Assay: co-IP of IRE1α S724 mutants
Details: reference: wild type; sites S724

fold change: stronger
Substance: IRE1α (inositol-requiring enzyme-1α) (from UniProt O75460) S724A
